{
  "source": "patent US20170268065",
  "biological_target": "T1, ELK-1 fusion protein (Cell Signaling), P19419",
  "T1 chain": "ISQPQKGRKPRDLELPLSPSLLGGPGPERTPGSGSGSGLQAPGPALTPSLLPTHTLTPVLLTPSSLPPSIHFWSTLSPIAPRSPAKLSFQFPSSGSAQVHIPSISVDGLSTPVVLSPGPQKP",
  "data": [
    {"protein": "V5-tagged ERK1^Y148H (protein) MAAAAAQGGGGGEPRRTEGVGPGVPGEVEMVKGQPFDVGPRYTQLQYIGEGAYGMVSSAYDHVRKTRVAIKKISPFEHQTYCQRTLREIQILLRFRHENVIGIRDILRASTLEAMRDVYIVQDLMETDLYKLLKSQQLSNDHICYFLHQILRGLKYIHSANVLHRDLKPSNLLINTTCDLKICDFGLARIADPEHDHTGFLTEYVATRWYRAPEIMLNSKGYTKSIDIWSVGCILAEMLSNRPIFPGKHYLDQLNHILGILGSPSQEDLNCIINMKARNYLQSLPSKTKVAWAKLFPKSDSKALDLLDRMLTFNPNKRITVEEALAHPYLEQYYDPTDEPVAEEPFTFAMELDDLPKERLKELIFQETARFQPGVLEAP", "values": [
      {"measurement": "ERK kinase activity (ELK-1 peptide phosphorylation, IP kinase assay after trametinib exposure)", "value": "diminished residual kinase activity in the setting of trametinib exposure with the common docking domain mutants compared to other alleles"}
    ]}
  ]
}
